Holding throughout (assay): Steady-state kinetics of 2-ketoacid decarboxylase (ADH/NADH coupled)
Holding throughout (settings): other: pH 7.5, 21° C.

Substrate in series [1]: CC(C)C(=O)C(=O)O
The class given is biochemical. The text has this:
(§1) To evaluate if the integrative genomic mining approach enriches the mining for C8 activity, an additional set of previously characterized ketoacid decarboxylases diverse in sequence were experimentally characterized in an equivalent manner. […] The median C8 activity from the GEOs selected using the integrative genomic mining approach is 75-fold higher than the naively picked decarboxylases (Table 1, FIG. 4). This indicates the integrative genomic mining approach is effective in identifying functional enzymes that perform the desired reaction on C8.
For the native KIVD and KIVD_VLV mutant, 2 ml overnight cultures of XL1B cells were transformed with pQE9 containing N-terminal his-tagged KIVD enzymes and grown in Terrific Broth (BP biomedical, Cat#3046-042) with 50 μg/mL of carbenicillin. […] Protein concentrations were determined using a Synergy H1 spectrophotometer (Biotek) by measuring absorbance at 280 nm using their calculated extinction coefficients with ExPASy ProtParam Tool.^33 All other buffers and salts were purchased from Fisher Scientific unless otherwise specified.
The kcat and KM values of selective KIVD mutants were measured for the substrates: C3, C5, isoC5, and C8. […] Activity was measured at 0.005 mM to 10 mM substrates. […] Absorbance readings were taken every 1-minute at OD340 at 21° C. for 60 minutes using the Synergy H1. […]

Substrate in series [2]: CC(C)C(=O)C(=O)O
The class given is biochemical, Lactococcus lactis. Here is the method: (§2) For the native KIVD and KIVD_VLV mutant, 2 ml overnight cultures of XL1B cells were transformed with pQE9 containing N-terminal his-tagged KIVD enzymes and grown in Terrific Broth (BP biomedical, Cat#3046-042) with 50 μg/mL of carbenicillin. (Fisher scientific, Cat# BP2648-5) For the GEOs, 2 ml overnight cultures of BLR cells were transformed with pet29b+ plasmid containing N-terminal his-tagged GEOs, and grown in Terrific Broth with 50 μg/mL of kanamycin. (Fisher scientific, Cat# BP906-5) These cultures were diluted 1:1000 in 500 mL of Terrific Broth with 1 mM MgSO4, 1% glucose, and 50ug/mL of corresponding antibiotics, then grown at 37° C. for 24 hours. Cultures were pelleted down at 4700 rpm for 10 mins and resuspended in auto-induction media (LB broth, 1 mM MgSO4, 0.1 mM TPP, 1×NPS, and 1×5052) for induction at 18° C. for 34 hours. At the end of induction, cells were centrifuged (4700 rpm, 4° C., 20 minutes), supernatant was removed, and cells were resuspended in 40 mL lysis buffer (100 mM Hepes pH 7.5, 100 mM NaCl, 10% glycerol, 0.1 mM TPP, 1 mM MgSO4, 10 mM Imidazole, 1 mM TCEP) and 1 mM PMSF) and sonicated for 2 minutes. Lysed cells were centrifuged at 4700 rpm at 4° C. for 60 mins to remove cell debris. Supernatant was loaded on gravity flow column with 700 μl of cobalt slurry (Fisher scientific, CAT# PI-90091) washed with 10 ml of wash buffer (100 mM Hepes pH 7.5, 100 mM NaCl, 10% glycerol, 0.1 mM TPP, 1 mM MgSO4, 10 mM Imidazole, and 1 mM TCEP). Cobalt bead bed was washed with 15 ml of wash buffer 5 times and proteins were eluted with 1000 μl of elution buffer (100 mM Hepes pH 7.5, 100 mM NaCl, 10% glycerol, 0.1 mM TPP, 1 mM MgSO4, 200 mM Imidazole, and 1 mM TCEP). Protein samples were immediately buffer exchanged with spin concentrators (Satorius, CAT# VS0112) into storage buffer (100 mM Hepes pH 7.5, 100 mM NaCl, 10% glycerol, 0.1 mM TPP, 1 mM MgSO4, and 1 mM TCEP) and stored at 4° C. until kinetics characterization. Protein concentrations were determined using a Synergy H1 spectrophotometer (Biotek) by measuring absorbance at 280 nm using their calculated extinction coefficients with ExPASy ProtParam Tool.^33 All other buffers and salts were purchased from Fisher Scientific unless otherwise specified.
(§3) The kcat and KM values of selective KIVD mutants were measured for the substrates: C3, C5, isoC5, and C8. All substrates were dissolved in MilliQ H2O and pH was adjusted to 7.5 as necessary. Activity was measured at 0.005 mM to 10 mM substrates. The assay was performed in a 96-well half-area plate. Each reaction contains a final concentration of 0.5 mM NADH, 1 mM DTT, 0.1 mM TPP, 1 mM MgSO4, reaction buffer (100 mM Hepes, 100 mM NaCl, 10% glycerol, pH 7.5) and ADH (Sigma Aldrich, A7011, 10 U/ml for C3, C5 and C8 reactions, 500 U/ml for isoC5 reactions). A wide range of ketoacid decarboxylase concentrations, 4.5 nM-15 μM, were used according to the activity of each enzyme toward different substrates in order to perform steady state kinetics measurement over a period of an hour. Absorbance readings were taken every 1-minute at OD340 at 21° C. for 60 minutes using the Synergy H1. Kinetic parameters (kcat and KM) were determined by fitting initial velocity versus substrate concentration data to the Michaelis-Menten equation.

Substrate in series [3]: CCCC(=O)C(=O)O
The class given is biochemical, Lactococcus lactis. On the procedure: as §2, §3

Substrate in series [4]: CCCCCCC(=O)C(=O)O
The class given is biochemical, Lactococcus lactis. Here is the method: as §2, §3

Substrate in series [5]: CC(C)C(=O)C(=O)O
The class given is biochemical.
Text: (§4) FIG. 17: Depicts protein sequences of various 2-ketoacid decarboxylases (SEQ ID NOS:20-34). Protein Sequence 3FZN is SEQ ID NO: 20. Protein sequence 2VBI is SEQ ID NO: 21. Protein sequence 1ZPD is SEQ ID NO: 22. Protein sequence ZP_08570611 is SEQ ID NO: 23. Protein sequence YP_831380 is SEQ ID NO: 24. Protein sequence ZP_06547677 is SEQ ID NO: 25. Protein sequence 1OVM_P23234 is SEQ ID NO: 26. Protein sequence ZP_06418208 is SEQ ID NO: 27. Protein sequence ZP_07290467 is SEQ ID NO: 28. Protein sequence 2VBG is SEQ ID NO: 29. Protein sequence CAK95977 is SEQ ID NO: 30. Protein sequence ZP_07282849 is SEQ ID NO: 31. Protein sequence ZP_06846103 is SEQ ID NO: 32. Protein sequence ZP_04996569 is SEQ ID NO: 33. Protein sequence YP_381143 is SEQ ID NO: 34.
as §1, §2
(§5) The kcat and KM values of selective KIVD mutants were measured for the substrates: C3, C5, isoC5, and C8. All substrates were dissolved in MilliQ H2O and pH was adjusted to 7.5 as necessary. Activity was measured at 0.005 mM to 10 mM substrates. The assay was performed in a 96-well half-area plate. […]
The source holds these as a separate data set.

Substrate in series [6]: CCCC(=O)C(=O)O
The class given is biochemical.
Text: as §4, §1, §2, §5

Substrate in series [7]: CCCCCCC(=O)C(=O)O
The series is classed as biochemical.
Text: as §4, §1, §2, §5

Substrate in series [8]: CC(=O)C(=O)O
The class given is biochemical.
Text: as §4, §1, §2, §5

Experimental findings from patent US10829756B2, “Discovery of enzymes from the alpha-keto acid decarboxylase family” (priority 2015, dated 2020) are described below.

B1: 1OZF, ketoacid decarboxylase (Klebsiella pneumoniae) (protein)
chain: MDKQYPVRQWAHGADLVVSQLEAQGVRQVFGIPGAKIDKVFDSLLDSSIRIIPVRHEANAAFMAAAVGRITGKAGVALVTSGPGCSNLITGMATANSEGDPVVALGGAVKRADKAKQVHQSMDTVAMFSPVTKYAIEVTAPDALAEVVSNAFRAAEQGRPGSAFVSLPQDVVDGPVSGKVLPASGAPQMGAAPDDAIDQVAKLIAQAKNPIFLLGLMASQPENSKALRRLLETSHIPVTSTYQAAGAVNQDNFSRFAGRVGLFNNQAGDRLLQLADLVICIGYSPVEYEPAMWNSGNATLVHIDVLPAYEERNYTPDVELVGDIAGTLNKLAQNIDHRLVLSPQAAEILRDRQHQRELLDRRGAQLNQFALHPLRIVRAMQDIVNSDVTLTVDMGSFHIWIARYLYTFRARQVMISNGQQTMGVALPWAIGAWLVNPERKVVSVSGDGGFLQSSMELETAVRLKANVLHLIWVDNGYNMVAIQEEKKYQRLSGVEFGPMDFKAYAESFGAKGFAVESAEALEPTLRAAMDVDGPAVVAIPVDYRDNPLLMGQLHLSQIL
As to B1, in series [1], the Michaelis constant (Km) came to 1.8 ± 0.1 mM and the kcat turned out to be 0.03 ± 0.001 s⁻¹.

B2: Native KIVD (ketoisovalerate decarboxylase), wild type, SEQ ID NO:1 (Lactococcus lactis subsp. lactis) (protein)
chain: MYTVGDYLLDRLHELGIEEIFGVPGDYNLQFLDQIISRKDMKWVGNANELNASYMADGYARTKKAAAFLTTFGVGELSAVNGLAGSYAENLPVVEIVGSPTSKVQNEGKFVHHTLADGDFKHFMKMHEPVTAARTLLTAENATVEIDRVLSALLKERKPVYINLPVDVAAAKAEKPSLPLKKENSTSNTSDQEILNKIQESLKNAKKPIVITGHEIISFGLEKTVSQFISKTKLPITTLNFGKSSVDEALPSFLGIYNGKLSEPNLKEFVESADFILMLGVKLTDSSTGAFTHHLNENKMISLNIDEGKIFNESIQNFDFESLISSLLDLSEIEYKGKYIDKKQEDFVPSNALLSQDRLWQAVENLTQSNETIVAEQGTSFFGASSIFLKPKSHFIGQPLWGSIGYTFPAALGSQIADKESRHLLFIGDGSLQLTVQELGLAIREKINPICFIINNDGYTVEREIHGPNQSYNDIPMWNYSKLPESFGATEERVVSKIVRTENEFVSVMKEAQADPNRMYWIELILAKEDAPKVLKKMGKLFAEQNKS
Take B2: the Michaelis constant (Km) in series [2] is on record as 4.5 ± 0.3 mM; in series [3] it was 1.5 ± 0.1 mM; in series [4] it was 0.21 ± 0.04 mM. Moreover, the kcat in series [2] is 61 ± 2.1 s⁻¹; in series [3], 14.3 ± 0.2 s⁻¹; in series [4], 7 ± 0.3 s⁻¹.

B3: 3FZN, ketoacid decarboxylase, SEQ ID NO: 20 (Pseudomonas putida) (protein)
chain: MASVHGTTYELLRRQGIDTVFGNPGSNELPFLKDFPEDFRYILALQEACVVGIADGYAQASRKPAFINLHSAAGTGNAMGALSNAWNSHSPLIVTAGQQTRAMIGVEALLTNVDAANLPRPLVKWSYEPASAAEVPHAMSRAIHMASMAPQGPVYLSVPYDDWDKDADPQSHHLFDRHVSSSVRLNDQDLDILVKALNSASNPAIVLGPDVDAANANADCVMLAERLKAPVWVAPSAPRCPFPTRHPCFRGLMPAGIAAISQLLEGHDVVLVIGAPVFRYHQYDPGQYLKPGTRLISVTCDPLEAARAPMGDAIVADIGAMASALANLVEESSRQLPTAAPEPAKVDQDAGRLHPETVFDTLNDMAPENAIYLNESTSTTAQMWQRLNMRNPGSYYFCAAGGLGFALPAAIGVQLAEPERQVIAVIGDGSANYSISALWTAAQYNIPTIFVIMNNGTYGALRWFAGVLEAENVPGLDVPGIDFRALAKGYGVQALKADNLEQLKGSLQEALSAKGPVLIEVSTVSPVKGSTENLYFQSGALE
Turning to B3, the figures for the Km in series [5], in series [6] and in series [7] were 4.9 ± 0.3 mM, 2.7 ± 0.2 mM and 3.8 ± 0.3 mM, respectively. In addition, the catalytic constant (kcat) turned out to be 0.52 ± 0.02 s⁻¹ in series [5], 4.7 ± 0.1 s⁻¹ in series [6] and 1.3 ± 0.1 s⁻¹ in series [7].

B4: 1ZPD, ketoacid decarboxylase, SEQ ID NO: 22 (Zymomonas mobilis subsp. mobilis ZM4 = ATCC 31821) (protein)
chain: MSYTVGTYLAERLVQIGLKHHFAVAGDYNLVLLDNLLLNKNMEQVYCCNELNCGFSAEGYARAKGAAAAVVTYSVGALSAFDAIGGAYAENLPVILISGAPNNNDHAAGHVLHHALGKTDYHYQLEMAKNITAAAEAIYTPEEAPAKIDHVIKTALREKKPVYLEIACNIASMPCAAPGPASALFNDEASDEASLNAAVDETLKFIANRDKVAVLVGSKLRAAGAEEAAVKFTDALGGAVATMAAAKSFFPEENALYIGTSWGEVSYPGVEKTMKEADAVIALAPVFNDYSTTGWTDIPDPKKLVLAEPRSVVVNGIRFPSVHLKDYLTRLAQKVSKKTGSLDFFKSLNAGELKKAAPADPSAPLVNAEIARQVEALLTPNTTVIAETGDSWFNAQRMKLPNGARVEYEMQWGHIGWSVPAAFGYAVGAPERRNILMVGDGSFQLTAQEVAQMVRLKLPVIIFLINNYGYTIEVMIHDGPYNNIKNWDYAGLMEVFNGNGGYDSGAAKGLKAKTGGELAEAIKVALANTDGPTLIECFIGREDCTEELVKWGKRVAAANSRKPVNKVVGSTENLYFQSGALE
For the protein B4, in series [8], the Michaelis-Menten constant (Km) is 5.7 ± 0.3 mM, the kcat is 46.7 ± 1.4 s⁻¹ and the kcat/Km was 8200 ± 545 M⁻¹ s⁻¹. Besides, in series [6], the Km is 7.1 ± 0.3 mM, the catalytic constant (kcat) was 0.95 ± 0.02 s⁻¹ and the catalytic efficiency (kcat/Km) was 140 ± 5.6 M⁻¹ s⁻¹. Also, in series [7], the Michaelis-Menten constant (Km) was found to be 1.2 ± 0.1 mM, the catalytic constant (kcat) stood at 0.021 ± 0.001 s⁻¹ and the kcat/Km amounted to 19 ± 2 M⁻¹ s⁻¹.

In general, Km refers to the substrate concentration at which the rate is half of its maximum. One may read the kcat as the number of substrate molecules converted per active site and unit of time at saturation. The kcat/Km is the second-order rate constant that governs catalysis at low substrate concentration.
